For experiment [1], the target named is Gαo-GDP (Drosophila melanogaster, UniProt P16378). Put plainly: biochemical. On the procedure:
(§1) Hexahistidine-tagged Drosophila Gαo, Gαo[W132F; W212F] and Gαo[W132F; W259F] were purified following. In brief, Top10 bacteria transformed with the corresponding construct were grown in LB media until an OD600=0.6, expression was induced with 0.1 mM IPTG and cells further grown overnight at room temperature. Cells were harvested, resuspended in PBS supplemented with Complete Protease Inhibitor cocktail (Roche) and lysed with Lysozyme and sonication. Binding of the His6 tagged proteins to the Ni-NTA agarose was conducted in 10 mM Imidazole in PBS. After washing in 20 mM Imidazole/PBS the proteins were eluted in 200–250 mM Imidazole/PBS. […] The 36-mer GoLoco1 peptide and the GoLoco1 peptide with the dansyl (5-(dimethylamino)naphthalene-1-sulfonyl) group attached to the side chain of the N-terminal lysine were synthesized by Pepscan Presto BV. Non-dansylated GoLoco1 was dissolved in water, dansyl-GoLoco1 was dissolved at 10 mM in 50% propan-2-ol and stored at -20°C.
(§2) Fluorescence measurements were performed at RT using the Biotek SynergyMx plate reader. For all experiments, the Gαo subunits were pre-incubated with 1 mM GDP or GTPγS for >30 min at RT. For FRET measurements, preloaded Gαo was added in a final concentration of 10 μM to increasing concentration of dansylated GoLoco1 in HKB (50 mM Hepes-KOH, 100 mM KCl, 10 mM NaCl, 2 mM EGTA, 5 mM MgCl2, 1 mM DTT) and incubated for 30 min before measurement.

Experiment [2] concerns the target T1, Gαo-GTPγS (Drosophila melanogaster, UniProt P16378). Put plainly: biochemical. Format: binding. Further details: His6 (hexahistidine); made in house; host or cells: E. coli Top10. On the procedure:
Trp-to-dansyl FRET was measured as above.

Experiment [3] has as its target Hexahistidine-tagged Drosophila Gαo (class II isoform), wild type (Drosophila). Nature of the experiment: FRET or BRET; competition: Gαo preloaded with GTPγS and dansylated GoLoco1 at 1:1 (5–10 μM), pre-incubated 10 min, then increasing unlabelled GoLoco1 in HKB, 30 min, RT; Trp-to-dansyl FRET.
For experiment [4] the target is unchanged. Nature of the experiment: FRET or BRET; competition: Gαo preloaded with GDP and dansylated GoLoco1 at 1:1 (5–10 μM), pre-incubated 10 min, then increasing unlabelled GoLoco1 in HKB, 30 min, RT; Trp-to-dansyl FRET. For orientation: In BRET a luciferase serves as donor, and the signal depends on an acceptor being close.
In experiment [5] the target is T1, Gαo-GTPγS. Nature of the experiment: biochemical. On the procedure:
as §1, §2

The target of experiment [6] is Hexahistidine-tagged Drosophila Gαo (class II isoform), wild type (Drosophila). Nature of the experiment: FRET or BRET; Trp-to-dansyl FRET (excitation 280 nm, emission 535 nm), saturation: 10 μM Gαo preloaded with 1 mM GTPγS added to increasing dansylated GoLoco1; HKB buffer, 30 min, RT.
The target is the same in experiment [7]. Put plainly: FRET or BRET; Trp-to-dansyl FRET (excitation 280 nm, emission 535 nm), saturation: 10 μM Gαo preloaded with 1 mM GDP added to increasing dansylated GoLoco1; HKB buffer (50 mM Hepes-KOH, 100 mM KCl, 10 mM NaCl, 2 mM EGTA, 5 mM MgCl2, 1 mM DTT), 30 min, RT.
Experiment [8] concerns the target Hexahistidine-tagged Drosophila Gαo[W132F; W212F] (Drosophila). Nature of the experiment: FRET or BRET; quenching of the donor: tryptophan fluorescence (excitation 280 nm, emission 330 nm) of 5 μM Gαo preloaded with GDP, 30 min with dansylated against unlabelled GoLoco1, RT; E = 1 - FD-A/FD.
For experiment [9], the target named is Hexahistidine-tagged Drosophila Gαo (class II isoform), wild type (Drosophila). Described as above.
The target of experiment [10] is Hexahistidine-tagged Drosophila Gαo[W132F; W259F] (Drosophila). The experiment is described as above.
For experiment [11] the target is unchanged. Put plainly: FRET or BRET; quenching of the donor: tryptophan fluorescence (excitation 280 nm, emission 330 nm) of 5 μM Gαo preloaded with GTPγS, 30 min with dansylated against unlabelled GoLoco1, RT; E = 1 - FD-A/FD.

Ends that are not written are not given here. Peptide text beside a SMILES is read from it. * marks the point of attachment. Dansyl = CN(C)c1cccc2c(S(=O)(=O)*)cccc12

T1 sequence (P16378 other isoform, or with tags, fused parts or gaps): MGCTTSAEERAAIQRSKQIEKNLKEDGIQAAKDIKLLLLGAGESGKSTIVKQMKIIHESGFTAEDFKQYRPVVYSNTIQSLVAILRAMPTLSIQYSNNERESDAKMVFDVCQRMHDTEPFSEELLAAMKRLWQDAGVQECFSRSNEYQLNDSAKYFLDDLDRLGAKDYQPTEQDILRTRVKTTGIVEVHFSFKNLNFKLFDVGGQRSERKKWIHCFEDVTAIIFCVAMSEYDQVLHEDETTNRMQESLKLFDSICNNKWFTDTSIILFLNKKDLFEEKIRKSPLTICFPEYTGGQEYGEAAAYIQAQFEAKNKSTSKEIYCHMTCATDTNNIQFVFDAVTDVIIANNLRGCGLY
Chain of Gαo-GDP (P16378 other isoform, or with tags, fused parts or gaps): as above

As a reminder, the Kd is the equilibrium constant for the complex coming apart. As to `CC[C@H](C)[C@H](NC(=O)[C@H](CO)NC(=O)[C@H](CS)NC(=O)[C@H](CCCNC(=N)N)NC(=O)[C@H](CCC(N)=O)NC(=O)[C@H](CC(=O)O)NC(=O)[C@H](CC(=O)O)NC(=O)[C@H](CCSC)NC(=O)[C@H](CCCNC(=N)N)NC(=O)[C@H](CCCCN)NC(=O)[C@H](CO)NC(=O)[C@H](CCC(N)=O)NC(=O)[C@H](CO)NC(=O)[C@H](CCCNC(=N)N)NC(=O)[C@H](CO)NC(=O)[C@H](CC(C)C)NC(=O)[C@H](CCSC)NC(=O)[C@H](CCC(=O)O)NC(=O)[C@H](Cc1ccccc1)NC(=O)[C@H](Cc1ccccc1)NC(=O)[C@H](CC(=O)O)NC(=O)[C@H](CC(=O)O)NC(=O)[C@H](CC(=O)O)NC(=O)[C@@H](N)CCCCNS(=O)(=O)c1cccc2c(N(C)C)cccc12)C(=O)N[C@@H](CCCCN)C(=O)N[C@H](C(=O)N[C@@H](CC(N)=O)C(=O)N1CCC[C@H]1C(=O)N[C@@H](CO)C(=O)NCC(=O)N[C@@H](C)C(=O)N1CCC[C@H]1C(=O)N[C@@H](C)C(=O)N[C@H](C(=O)N[C@@H](C)C(=O)N[C@H](C(=O)O)[C@@H](C)O)C(C)C)C(C)C` [dGoLoco1] (H-K(Dansyl)DDDFFEMLSRSQSKRMDDQRCSIKVNPSGAPAVAT-OH), the values for the Kd in experiment [1] and in experiment [2] were 4.6 µM and 2.1 µM, respectively.
In general, Ki refers to the dissociation constant of the complex between target and ligand, obtained from inhibition or displacement. Take “GoLoco1 peptide of Drosophila Pins (unlabelled)”: the Ki in experiment [3] is 10.6 µM; in [4], 17.6 µM.
Take “KDDDFFEMLSRSQSKRMDDQRCSIKVNPSGAPAVAT [GoLoco1]”: the Ki is 10.6 µM in experiment [5] and 17.6 µM in experiment [1].
Regarding “dansylated GoLoco1 peptide of Drosophila Pins”, the dissociation constant (Kd) in experiment [6] turned out to be 2.1 µM; in experiment [7], 4.6 µM. Moreover, the FRET efficiency E in experiment [8] came to 0.478; in experiment [9] it was 0.474; in experiment [10], 0.544; in [11] it was 0.127.
